As usually defined, the Km is the substrate concentration at which the rate is half of its maximum.

Substrate in this data set: NC(=O)c1cccnc1
Kind of data set: purified protein, by the assay type. Format: biochemical. Particulars: other: mouse enzyme; saturating NAD+ and peptide; pH 7.8.

Description: After 2 hours, aliquots of 10 μL removed at 0, 30, 60, 90 and 120 min. Each aliquot was combined with 50 μL 50 mM ammonium acetate pH 5.0 to quench and assayed by HPLC for deacetylation products and NAD^+. The chromatograms (260 nm) were obtained using 50 mM ammonium acetate pH 5.0 as eluant on a semi-preparative Waters C-18 column (2.0 mL/min flow rate). Peaks for ADPR and 3′-O-Acetyl-ADPR were quantified by integration. The peak for NAD^+ was collected and radiation counted.

B1: Mouse SIR2 enzyme (SIR2α) (Mus musculus) (protein)
chain: MADEVALALQAAGSPSAAAAMEAASQPADEPLRKRPRRDGPGLGRSPGEPSAAVAPAAAGCEAASAAAPAALWREAAGAAASAEREAPATAVAGDGDNGSGLRREPRAADDFDDDEGEEEDEAAAAAAAAAIGYRDNLLLTDGLLTNGFHSCESDDDDRTSHASSSDWTPRPRIGPYTFVQQHLMIGTDPRTILKDLLPETIPPPELDDMTLWQIVINILSEPPKRKKRKDINTIEDAVKLLQECKKIIVLTGAGVSVSCGIPDFRSRDGIYARLAVDFPDLPDPQAMFDIEYFRKDPRPFFKFAKEIYPGQFQPSLCHKFIALSDKEGKLLRNYTQNIDTLEQVAGIQRILQCHGSFATASCLICKYKVDCEAVRGDIFNQVVPRCPRCPADEPLAIMKPEIVFFGENLPEQFHRAMKYDKDEVDLLIVIGSSLKVRPVALIPSSIPHEVPQILINREPLPHLHFDVELLGDCDVIINELCHRLGGEYAKLCCNPVKLSEITEKPPRPQKELVHLSELPPTPLHISEDSSSPERTVPQDSSVIATLVDQATNNNVNDLEVSESSCVEEKPQEVQTSRNVENINVENPDFKAVGSSTADKNERTSVAETVRKCWPNRLAKEQISKRLEGNQYLFVPPNRYIFHGAEVYSDSEDDVLSSSSCGSNSDSGTCQSPSLEEPLEDESEIEEFYNGLEDDTERPECAGGSGFGADGGDQEVVNEAIATRQELTDVNYPSDKS
notes: purchased Upstate Group
Take B1: the Michaelis constant (Km) was 127 µM.

Values taken from patent US8835467B2, “SIR2 regulation” (Albert Einstein College of Medicine of Yeshiva University, priority 2003, dated 2014).
